Numbering of substitutions follows the chain as printed. Numbers in names are those of the source.
T1: human TL1A, soluble, CHO-expressed, residues 72-251 of SEQ ID NO:244 with N-terminal His6-tag (human, UniProt O95150 72-251)
T1 construct: also called hTL1A; hTL1A (CHO)
T1 sequence: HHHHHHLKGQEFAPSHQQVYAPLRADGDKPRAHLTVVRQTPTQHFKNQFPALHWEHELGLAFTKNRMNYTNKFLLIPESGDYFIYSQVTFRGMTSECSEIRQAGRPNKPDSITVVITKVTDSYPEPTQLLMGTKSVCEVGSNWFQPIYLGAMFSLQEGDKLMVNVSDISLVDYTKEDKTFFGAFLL

T2: rat TL1A, soluble, CHO-expressed, residues 76-252 of SEQ ID NO:258 with N-terminal His6-tag (rat, UniProt Q8K3Y7 76-252)
T2 construct: also called rTL1A; rTL1A (CHO)
T2 sequence: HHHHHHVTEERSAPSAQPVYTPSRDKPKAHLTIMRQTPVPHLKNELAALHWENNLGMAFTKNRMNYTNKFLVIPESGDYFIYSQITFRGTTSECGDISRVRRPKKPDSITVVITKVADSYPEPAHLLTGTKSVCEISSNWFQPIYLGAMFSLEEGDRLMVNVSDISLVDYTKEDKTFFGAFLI

T3: cynomolgus monkey TL1A, soluble, CHO-expressed, residues 72-251 of SEQ ID NO:248 with N-terminal His6-tag (cynomolgus monkey (Macaca fascicularis), UniProt O95150 72-251 (human entry))
T3 construct: also called MfTL1A; MfTL1A (CHO)
T3 chain: T1 sequence with F45L, I84V

T4: cynomolgus monkey TL1A, soluble, E. coli-expressed, residues 72-251 of SEQ ID NO:248 (cynomolgus monkey (Macaca fascicularis), UniProt O95150 72-251 (human entry))
T4 chain: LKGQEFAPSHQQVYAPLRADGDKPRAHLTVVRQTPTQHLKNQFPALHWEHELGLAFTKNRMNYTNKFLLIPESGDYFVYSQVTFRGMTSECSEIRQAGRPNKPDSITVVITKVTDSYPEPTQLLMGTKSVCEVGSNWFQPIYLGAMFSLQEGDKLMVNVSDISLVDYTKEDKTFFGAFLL

B1: H4H1818N (antibody, human IgG4 S228P, V domains shown)
VH: RLQLVESGGGLVKPGGSLKLSCAASGFTISDYYMSWIRQAPGKGLEWVSYIGGSGSTIYYADSVKGRFTISRDNAKNSLYLQMNSLRAEDTAVYYCAREDADSYYYYGMDVWGQGTTVTVSS
VL: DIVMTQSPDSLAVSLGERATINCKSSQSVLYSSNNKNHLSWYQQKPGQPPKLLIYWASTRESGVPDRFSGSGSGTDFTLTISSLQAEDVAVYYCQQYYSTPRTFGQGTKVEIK
notes: human IgG4(S108P) form of H2M1818N
B2: H4H1817N (antibody, human IgG4 S228P, V domains shown)
VH: QVQLQQWGAGLLKPSETLSLTCAVSGGSFSDYFWTWIRQPPGKGLEWIGEISHSGRTNYNPSLKSRVTISVDTSMSQFSLKMTSVTAADSAVYYCARDYPNWVFDYWGQGTLVTVSS
VL: EIELTQSPGTLSLSPGEGATLSCRASQSVFNSYLAWYQQKPGQAPRLLIYGASRRATGIPDRFSGSGSGTDFTLTISRLEPGDFAVYFCQQYGNSPLTFGGGTKVEIK
notes: human IgG4(S108P) form of H2M1817N
B3: H4H1752P (antibody, human IgG4 S228P, V domains shown)
VH: EVQLVESGGGLVQPGGSLRLSCSASGFTFSKYVMTWVRQAPGKGLEWVSAIGPTGRTTEYADSVQGRFTISRDNSMNTVFLHLNSLTAEDTAEYYCAKMFDWNYDVYFDSWGQGTLVTVSS
VL: DIQMTQSPSILSASVGDRVTITCRTSQSISNWLAWYQQKPGKAPNLLIYKASSLESGVPSRFSGSGSGTEFTLTISSLQPDDFATYYCQQYYRYWTFGQGTKVEIK
B4: H4H1804N (antibody, human IgG4 S228P, V domains shown)
VH: QVQLHQWGAGLLKPSETLSLTCAVSGVSFSDYHWAWIRQSPGKGLEWIGDINHRGRTNYNPSLKSRVTISLDTSGNPFSLKLTSVTAADTAVYYCARDFPNWVFDSWGQGILVTVSS
VL: EIVLSQSPGTLSLSPGERATLSCRASQSVSSSFLAWYQQYPGQAPRLLIYGASRRATGIPDRFRGSGSGTDFTLTISRLEPEDFAVYYCQQYGSSPLTFGGGTKVENK
notes: human IgG4(S108P) form of H2M1804N
B5: H4H1805N (antibody, human IgG4 S228P, V domains shown)
VH: QVQLQQWGAGLLKPSETLSLTCAVYGGSFTGFYWSWIRQPPGKGLEWIGEINHRGNTNYNPSLKSRVTMSVDTSKNQFSLNMISVTAADTAMYFCASPFYDFWSGSDYWGQGTLVTVSS
VL: DIMLTQTPLTSPVTLGQPASISCKSSQSLVHSDGNTYLSWLQQRPGQPPRLLFYKISNRFSGVPDRFSGSGAGTDFTLKISRVEAEDVGVYYCMQATQFPLTFGGGTKVEIK
notes: human IgG4(S108P) form of H2M1805N
B6: H4H1681N (antibody, human IgG4 S228P, V domains shown)
VH: EVQLLESGGGLVQPGKSLRLSCAVSGFTFSTYGMNWVRQAPGKGLEWVSSISGTGRTTYHADSVQGRFTVSRDNSKNILYLQMNSLRADDTAVYFCTKERGDYYYGVFDYWGQGTLVTVSS
VL: DIQMTQSPSTLSASVGDRVTITCRASQTISSWLAWYQQTPEKAPKLLIYAASNLQSGVPSRFSGSGSGTEFTLTISSLQPDDFATYYCQQYHRSWTFGQGTKVEIT
B7: H4H1750P (antibody, human IgG4 S228P, V domains shown)
VH: QVQLVESGGGVVQPGRSLRLSCVASGFTFSNYGMHWVRQAPGKGLEWVAVISYDGNNDLYSDSVKGRFTISRDNAKNALSLQMTSLRAEDTAVYYCARDSTMTPYYYHGIDVWGQGTTVTVSA
VL: DIQMTQSPSSLSASVGDRVTITCRASQDIRNDLGWYQQKPGKAPKRLIYAASSLQSGVPSRFSGSGSGTDFTLTISSLQPEDFATYYCLQHNSYPPTFGQGTKVEIK
B8: H4H1704N (antibody, human IgG4 S228P, V domains shown)
VH: EVQLVESGGGLVQPGGSLRLSCAVSGFTFSSYWMSWVRQAPGKGLEWVANIKEDGSEKNYVDSVKGRFTLSSDNAKNSLYLQMNSLRAEDTAVYYCAREDYDSYYKYGMDVWGQGTAVIVSS
VL: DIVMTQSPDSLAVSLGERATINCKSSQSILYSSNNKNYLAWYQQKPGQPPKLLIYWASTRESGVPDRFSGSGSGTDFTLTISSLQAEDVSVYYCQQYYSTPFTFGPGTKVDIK
notes: human IgG4(S108P) form of H2M1704N

Target: T1, human TL1A, soluble, CHO-expressed, …
Test: ELISA, blocks hTL1A (150 pM) binding hDR3-Fc
Experimental: (§1) The ability of antibodies to block human TL1A binding to its cognate receptors, the DR3 and DcR3 receptors, was measured using a competition sandwich ELISA. In addition, blocking of a human TL1A variant FHM (human TL1A Q167R) and the cynomolgus monkey (Macaca fascicularis) TL1A (MfTL1A) protein binding to the human DR3 or DcR3 receptors was measured in the same manner. Constant amounts of biotinylated human TL1A or FHM (both expressed with a 6-His tag in CHO cells) or biotinylated MfTL1A (expressed in CHO cells) were separately titrated with varying amounts of antibodies. The antibody-protein complexes were incubated in solution (1 hr, 25° C.) and then transferred to microtiter plates coated with human DR3 (hDR3) or human DcR3 (hDcR3) expressed as human IgG1 Fc fusion proteins. After one hour at 25° C. the wells were washed, and bound human or monkey TL1A was detected with streptavidin conjugated with horseradish peroxidase (HRP). Wells were developed with a TMB solution to produce a colorimetric reaction and quenched with aqueous sulfuric acid before reading absorbance at 450 nm on a Perkin-Elmer Victor X5 plate reader. A sigmoidal dose-response curve was fit to the data using the Prism™ data analysis package. […] Both fully human anti-hTL1A mAbs and comparator antibodies, i.e., control mAb1 (an anti-hTL1A antibody with heavy and light chain variable domains having the amino acid sequences corresponding to SEQ ID NOS:21 and 27, respectively, of US 2009/0280116) and control mAb3 (an anti-hTL1A antibody with heavy and light chain variable domains having the amino acid sequences corresponding to SEQ ID NOS:57 and 48, respectively, of US 2009/0280116), were included in the study. NB: No binding under the conditions tested; NT: Not tested. Concentrations of biotinylated soluble ligands: (1) 150 pM; (2) 500 pM; (3) 10 pM; and (4) 50 pM.

Row | Binder | IC50 [nM]
1 | B1 | 0.119
2 | B2 | 0.114
3 | B3 | 0.104
4 | B4 | 0.04
5 | B5 | 0.014
6 | B6 | 0.06
7 | B7 | 0.341
8 | B8 | 0.03

Target: T2, rat TL1A, soluble, CHO-expressed, …
Test: SPR 25C, mAb captured
Summary of the method: (§2)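 Biacore T100 SPR with captured mAb and soluble TL1A/Fhm analyte; ka and kd fitted to a 1:1 model assuming monomeric TL1A. KD = kd/ka; t1/2 (min) = ln2/(60·kd).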

Row | Binder | Kd [nM] | t1/2 [h] | binding result
9 | B1 | 0.088 | 1.53 | –
10 | B2 | 2.5 | 0.417 | –
11 | B3 | – | – | no binding (tested: up to 100 nM)
12 | B4 | 0.321 | 0.717 | –
13 | B5 | – | – | no binding (tested: up to 100 nM)
14 | B6 | – | – | no binding (tested: up to 100 nM)
15 | B7 | – | – | no binding (tested: up to 100 nM)
16 | B8 | 0.404 | 0.417 | –

Target: T1, human TL1A, soluble, CHO-expressed, …
Test: SPR 25C, mAb captured
Summary of the method: as §2

Row | Binder | Kd [nM] | t1/2 [h]
17 | B1 | 0.124 | 2
18 | B2 | 0.321 | 1.72
19 | B3 | 0.156 | 3.28
20 | B4 | 0.291 | 0.85
21 | B5 | 0.365 | 1.22
22 | B6 | 0.263 | 0.6
23 | B8 | 0.0392 | 7.55

Target: T3, cynomolgus monkey TL1A, soluble, …
Test: SPR 25C, mAb captured
Summary of the method: as §2

Row | Binder | Kd [nM] | t1/2 [h]
24 | B1 | 0.119 | 2.03
25 | B2 | 0.356 | 1.53
26 | B3 | 0.213 | 2.32
27 | B4 | 0.264 | 0.817
28 | B5 | 0.342 | 1.23
29 | B6 | 0.404 | 0.417
30 | B8 | 0.0599 | 4.6

Target: T1, human TL1A, soluble, CHO-expressed, …
Test: ELISA, blocks hTL1A (10 pM) binding hDcR3-Fc
Experimental: as §1

Row | Binder | IC50 [nM]
31 | B1 | 0.232
32 | B2 | 0.27
33 | B3 | 0.031
34 | B4 | 0.175
35 | B5 | 0.033
36 | B6 | 0.017
37 | B7 | 0.656
38 | B8 | 0.077

Target: T1, human TL1A, soluble, CHO-expressed, …
Test: cell-based or functional assay

Row | Binder | Average % Blocking IFN-g, 3 ug/ml mAb [%]
39 | B1 | 71
40 | B2 | 98
41 | B3 | 71
42 | B4 | 98
43 | B5 | 94
44 | B6 | 95
45 | B7 | 89
46 | B8 | 98

Target: T3, cynomolgus monkey TL1A, soluble, …
Test: ELISA, blocks MfTL1A (500 pM) binding hDR3-Fc
Experimental: as §1

Row | Binder | IC50 [nM]
47 | B1 | 0.123
48 | B2 | 0.101
49 | B3 | 0.11
50 | B4 | 0.071
51 | B5 | 0.026
52 | B6 | 0.141
53 | B8 | 0.042

Target: T1, human TL1A, soluble, CHO-expressed, …
Test: cell-based or functional assay
Remark: another data set of the same source

Row | Binder | IC50, NFkB-luciferase reporter [nM]
54 | B1 | 0.37
55 | B2 | 0.11
56 | B3 | 0.36
57 | B4 | 0.07
58 | B5 | 0.1
59 | B6 | 0.17
60 | B7 | 0.9
61 | B8 | 0.13

Target: T4, cynomolgus monkey TL1A, soluble, E. …
Test: cell-based or functional assay

Row | Binder | IC50, NFkB-luciferase reporter [nM]
62 | B1 | 0.06
63 | B2 | 0.02
64 | B3 | 0.05
65 | B4 | 0.02
66 | B5 | 0.02
67 | B6 | 0.02
68 | B7 | 32.5
69 | B8 | 0.03

Target: T3, cynomolgus monkey TL1A, soluble, …
Test: ELISA, blocks MfTL1A (50 pM) binding hDcR3-Fc
Experimental: as §1

Row | Binder | IC50 [nM]
70 | B1 | 1.1
71 | B2 | 0.322
72 | B3 | 0.056
73 | B4 | 0.034
74 | B5 | 0.313
75 | B6 | 0.093
76 | B8 | 0.11

Reference: patent US20140120109A1 (Regeneron, published 2014)
